Data taken from patent publication US20230399374A1, “Compounds, Compositions and Methods of Use to Treat Bone Fractures” (PURDUE RESEARCH FOUNDATION, priority 2020, published 2023).
Non-standard residues stand in square brackets, D forms with d. Residues, ends and D or L forms follow the SMILES beside them. No end group written: not given here. *: point of attachment. X2 = CC1(C)C(/C=C/C2=C(Oc3ccc(CCNC(=O)CCN4C(=O)CC(*)C4=O)cc3)C(=C/C=C3/N(CCCCS(=O)(=O)O)c4ccc(S(=O)(=O)O)cc4C3(C)C)/CCC2)=[N+](CCCCS(=O)(=O)O)c2ccc(S(=O)(=O)O)cc21; Fmoc = O=C(OCC1c2ccccc2-c2ccccc21)*

Experiments:
[1] = Half-life of S0456 near-IR dye conjugates at the fracture site; details: female, ND-4 Swiss-Webster, mouse, in vivo, sc, 250 nmol/mouse
Experimental: (§1) All animal experiments were performed in accordance with protocols approved by Purdue University's Institutional Animal Care and Use Committee (IACUC).

[2] = mouse, in vivo, iv
Experimental: as §1

[3] = test system: midshaft femur fractures; details: mouse, in vivo
Experimental: To explore the impact of peptide branching on payload targeting, the abilities of acidic oligo-aspartic acids constructed of either two chains of 5 aspartic acids each or a single linear chain of 10 aspartic acids to deliver the CK2.3 payload to fracture surfaces were compared. […] The biodistributions were determined 18 hours post-injection into ND-4 Swiss-Webster mice (n=5) bearing midshaft femur fractures 10 days post-fracture.
The biodistributions were determined 18 hours post-injection into ND-4 Swiss-Webster mice (n=5) bearing midshaft femur fractures 10 days post-fracture.
The biodistributions were determined 18 hours post-injection (e.g., into ND-4 Swiss-Webster mice (n=5) bearing midshaft femur fractures 10 days post-fracture).
In some instances, the biodistribution is determined 18 hours post-injection (e.g., into ND-4 Swiss-Webster mice (n=5) bearing midshaft femur fractures 10 days post-fracture).
The biodistribution was determined 18 hours post-injection (e.g., into ND-4 Swiss-Webster mice (n=5) bearing midshaft femur fractures 10 days post-fracture). In some instances, the accumulation of the labeled compounds in the fractured femurs are reported as a percent of the injected dose per gram of tissue. […]

[4] = Serum calcium after 21 days of treatment (QuantiChrom Calcium Assay); format: in vivo, Swiss Webster mouse; details: FIG. 25
Description: In some instances, using a targeted anabolic described herein (e.g., as opposed to free anabolics) is beneficial for treating bone fracture, such as, for example, because targeted anabolics hereof can limit the effects on the regulation of calcium metabolism that occurs in the kidneys for parathyroid hormones.
For quantitative determination of calcium ion (Ca^2+) and evaluation of drug effects on calcium metabolism, the QuantiChrom Calcium Assay Kit from BioAssay Systems (Hayward, CA) was used. A phenolsulfonphthalein dye in the kit specifically forms a very stable, blue-colored complex with free calcium. The intensity of the color, measured at 612 nm, is directly proportional to the calcium concentration in the sample. […] The serum was removed from the cell pellet and stored at −80° C. until calcium concentration quantification. […] After that, the samples were incubated for 3 minute at room temperature and optical density at 570-650 nm (peak absorbance at 612 nm) was read to obtain the ODSAMPLE. […] The plate was tapped to mix and optical density was measured at the same wavelength to get ODSTANDARD. […] Optical density was read at the same wavelength measurement to get ODBLANK. […]
where ODSAMPLE, ODBLANK, and ODSTANDARD are the OD readings of the Sample, Sample Blank, and the Sample plus Standard respectively; 10 is the concentration of the standard in mg/dL, and n is the sample dilution factor. […]

Compound: CC1(C)C(/C=C/C2=C(Oc3ccc(CCNC(=O)CCN4C(=O)CC(SC[C@H](NC(=O)OCC5c6ccccc6-c6ccccc65)C(=O)N[C@H](CC(=O)O)C(=O)N[C@H](CC(=O)O)C(=O)N[C@H](CC(=O)O)C(=O)N[C@H](CC(=O)O)C(=O)N[C@H](CC(=O)O)C(=O)N[C@H](CC(=O)O)C(=O)N[C@H](CC(=O)O)C(=O)N[C@H](CC(=O)O)C(=O)N[C@H](CC(=O)O)C(=O)N[C@H](CC(=O)O)C(=O)O)C4=O)cc3)C(=C/C=C3/N(CCCCS(=O)(=O)O)c4ccc(S(=O)(=O)O)cc4C3(C)C)/CCC2)=[N+](CCCCS(=O)(=O)O)c2ccc(S(=O)(=O)O)cc21 (stereo partly shown) [(D)Asp10] (Fmoc-C(X2)[dD][dD][dD][dD][dD][dD][dD][dD][dD][dD]-OH)
- half-life [1]: > 100 h

Compound: N[C@@H](Cc1ccc(O)c(I)c1)C(=O)N[C@@H](CSC1CC(=O)N(CCC(=O)N[C@@H](CC(=O)O)C(=O)N[C@@H](CC(=O)O)C(=O)N[C@@H](CC(=O)O)C(=O)N[C@@H](CC(=O)O)C(=O)N[C@@H](CC(=O)O)C(=O)N[C@@H](CC(=O)O)C(=O)N[C@@H](CC(=O)O)C(=O)N[C@@H](CC(=O)O)C(=O)O)C1=O)C(=O)O (stereo partly shown) [octa-aspartic acid] (HELM PEPTIDE1{[N[C@@H](Cc1ccc(O)c(I)c1)C(=O)N[C@@H](CSC1CC(=O)N(CCC(=O)[*:2])C1=O)C(=O)O].D.D.D.D.D.D.D.D}$$$$V2.0)
- selectivity ratio [2]: 11.2

Compound: RQIKIWFQNRRMKWKKIPVGESLKDLIDQC [CK2.3]
- fracture targetability of payloads coupled to (L)Asp10 (in words) [3]: displayed no reduction in fracture accumulation

Compound: SVSEIQLMHNLGKHLNSMERVEWLRKKLQDVHNFVALGAPLAPRDA[dE][dE][dE][dE][dE][dE][dE][dE][dE][dE] [SEQ ID NO: 13]
- blood (serum) calcium [4]: did not increase the blood calcium significantly in comparison to the free form
